Key:
[1] = biological target: Human IgA (hIgA), H (WT)-IgA1 / L (WT) (human); experiment: >=
[2] = biological target: T1, GC-hIgA-MYC (human); experiment: SPR (Biacore T200), 25 C, pH 7.4, 1.2 mM Ca; 200 nM antibody with or without 200 nM antigen over captured human FcγRIIIaV; immune complex shown by slower dissociation
T1 construct: also called hIgA-v2

[3] = biological target: T2, human IgE (variable region derived from an anti-human glypican3 antibody) (human); experiment: SPR (Biacore T200), 37 C; ratio of KD values
T2 construct: also called hIgE
T2 sequence (heavy, as listed by the source): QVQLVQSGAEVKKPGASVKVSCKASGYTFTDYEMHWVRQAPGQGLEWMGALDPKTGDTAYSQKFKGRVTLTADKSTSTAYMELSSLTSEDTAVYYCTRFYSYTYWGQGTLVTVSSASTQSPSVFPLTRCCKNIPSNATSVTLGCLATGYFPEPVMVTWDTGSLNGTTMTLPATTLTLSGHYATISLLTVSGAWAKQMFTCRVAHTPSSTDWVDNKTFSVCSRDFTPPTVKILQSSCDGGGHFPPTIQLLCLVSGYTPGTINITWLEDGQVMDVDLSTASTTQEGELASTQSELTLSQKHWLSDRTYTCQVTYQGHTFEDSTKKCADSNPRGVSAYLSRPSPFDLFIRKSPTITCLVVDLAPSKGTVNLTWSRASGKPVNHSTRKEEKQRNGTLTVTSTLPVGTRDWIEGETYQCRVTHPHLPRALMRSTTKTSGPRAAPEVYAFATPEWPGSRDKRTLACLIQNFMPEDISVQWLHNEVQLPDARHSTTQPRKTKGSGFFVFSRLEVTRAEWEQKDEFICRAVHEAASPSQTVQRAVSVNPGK
Protocol: Running buffers used in the assay were:
A chemically-synthetized peptide having a human glypican 3 protein-derived sequence (SEQ ID NO: 47) whose C-terminal Lys is biotinylated (hereinafter abbreviated as “biotinylated GPC3 peptide”) was added in an appropriate amount and immobilized onto Sensor chip SA (GE Healthcare) based on the affinity between biotin and streptavidin. Human IgE was immobilized onto the chip by injecting it at an appropriate concentration so as to be trapped by the biotinylated GPC3 peptide. […] Then, 10 mmol/L glycine-HCl (pH 1.5) was injected to regenerate the sensor chip. The interaction was always measured at 37° C. The measurement result was analyzed by curve fitting using Biacore T200 Evaluation Software (GE Healthcare) to calculate the association rate constant ka (1/Ms) and dissociation rate constant kd (1/s). The dissociation constant KD (M) was calculated from the above-described constants.

[4] = biological target: T3, soluble mouse FcRn (mFcRn), with mouse β2-microglobulin (mouse, UniProt Q61559 22-290; P01887 21-119); experiment: SPR (Biacore T100), mouse FcRn immobilised on a CM4 chip, clone 278-IgG1 50 µg/mL as analyte, pH 7.4, 25 °C; bound amount normalised to 100 [ii]
T3 sequence: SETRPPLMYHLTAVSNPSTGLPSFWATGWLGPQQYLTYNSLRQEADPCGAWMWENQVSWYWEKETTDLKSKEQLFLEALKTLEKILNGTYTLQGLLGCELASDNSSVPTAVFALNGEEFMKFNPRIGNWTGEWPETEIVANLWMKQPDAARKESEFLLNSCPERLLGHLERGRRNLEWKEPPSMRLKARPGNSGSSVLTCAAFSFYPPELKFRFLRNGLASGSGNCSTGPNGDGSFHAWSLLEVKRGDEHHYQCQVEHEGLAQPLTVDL
T3 sequence (b2m): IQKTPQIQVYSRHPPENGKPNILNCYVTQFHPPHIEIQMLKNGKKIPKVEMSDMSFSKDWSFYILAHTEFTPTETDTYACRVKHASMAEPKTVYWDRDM
Protocol: (§1) Binding of an antigen-antibody immune complex with FcRn was assessed using Biacore T100 (GE Healthcare). […] Subsequently, a 20 mM Tris-HCl, 150 mM NaCl, pH 9.0 or pH 9.5 solution was injected to regenerate the sensor chip. A 50 mmol/L Na-Phosphate (phsophoric acid), 150 mmol/L NaCl, 0.05% Tween20, pH 7.4 buffer was used as the running buffer, and binding between the antigen-antibody immune complex and FcRn was measured at 25° C.

[5] = biological target: T4, soluble human IL-6 receptor (hsIL-6R) (human, UniProt P08887 20-357); experiment: ECL sandwich: biotinylated Fv4-IgG1 on streptavidin plate captures hsIL-6R, detected with ruthenium-labelled PHX-F29
T4 construct: also called hIL-6R
T4 sequence: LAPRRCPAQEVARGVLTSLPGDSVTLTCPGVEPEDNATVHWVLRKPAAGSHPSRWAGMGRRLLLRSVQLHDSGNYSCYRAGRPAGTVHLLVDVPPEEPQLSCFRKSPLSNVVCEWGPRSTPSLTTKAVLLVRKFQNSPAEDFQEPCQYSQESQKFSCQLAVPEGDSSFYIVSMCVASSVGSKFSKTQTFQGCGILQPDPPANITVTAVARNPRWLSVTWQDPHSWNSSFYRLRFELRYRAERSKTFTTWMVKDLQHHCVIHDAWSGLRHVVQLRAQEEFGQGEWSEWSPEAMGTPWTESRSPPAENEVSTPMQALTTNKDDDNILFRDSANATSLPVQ
Protocol: Whether or not two types of antibodies can bind to a single antigen simultaneously was evaluated by an electrochemiluminescence method. […] After washing, 100 μL of the hsIL-6R solutions prepared at 0, 0.2, 1, 5, and 25 μg/mL was added, and they were allowed to react at room temperature for one hour. […] After washing, 150 μL of Read Buffer T (×4) (Meso Scale Discovery) was dispensed into each well, and this was immediately followed by chemiluminescence measurement using the SECTOR IMAGER 2400 Reader (Meso Scale Discovery).

[6] = biological target: T3, soluble mouse FcRn (mFcRn), with mouse …; experiment: SPR (Biacore T100), mouse FcRn immobilised on a CM4 chip, Fv4-IgG1 50 µg/mL alone or with hsIL6R 12.5 µg/mL as analyte, pH 7.4, 25 °C; bound amount normalised to 100 [i]
Protocol: as §1

[7] = biological target: T4, soluble human IL-6 receptor (hsIL-6R); experiment: SPR (Biacore T100), 25 C, pH 7.4; Fv4-F22 10 µg/mL with or without hsIL6R 2.5 µg/mL over immobilized hFcRn
Protocol: (§2) Binding of an antigen-antibody immune complex with human FcRn was assessed using Biacore T100 (GE Healthcare).
(§3) Subsequently, a 20 mM Tris-HCl, 150 mM NaCl, pH 9.0 or pH 9.5 solution was injected to regenerate the sensor chip. A 50 mmol/L Na-Phosphate (phosphoric acid), 150 mmol/L NaCl, 0.05% Tween20, pH 7.4 buffer was used as the running buffer, and binding between the antigen-antibody immune complex and FcRn was measured at 25° C.

[8] = biological target: soluble human FcRn (hFcRn), complex with β2-microglobulin (human, UniProt P55899 24-290; P61769 21-119); experiment: SPR (Biacore T100), human FcRn immobilised on a CM4 chip, Fv4-F22 10 µg/mL alone or with hsIL6R 2.5 µg/mL as analyte, pH 7.4, 25 °C; bound amount normalised to 100 [i]
Sequence of soluble human FcRn (hFcRn), complex with β2-microglobulin (P55899 24-290 limits assumed, chain 1 of 2): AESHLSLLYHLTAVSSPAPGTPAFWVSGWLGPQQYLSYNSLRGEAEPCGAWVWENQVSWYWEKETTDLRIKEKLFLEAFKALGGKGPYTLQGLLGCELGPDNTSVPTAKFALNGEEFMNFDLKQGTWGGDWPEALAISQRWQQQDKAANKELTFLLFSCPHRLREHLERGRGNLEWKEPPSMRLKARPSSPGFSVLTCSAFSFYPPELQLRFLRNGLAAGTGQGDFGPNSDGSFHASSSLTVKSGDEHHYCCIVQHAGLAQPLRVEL
Sequence of soluble human FcRn (hFcRn), complex with β2-microglobulin (P61769 21-119 limits assumed, chain 2 of 2): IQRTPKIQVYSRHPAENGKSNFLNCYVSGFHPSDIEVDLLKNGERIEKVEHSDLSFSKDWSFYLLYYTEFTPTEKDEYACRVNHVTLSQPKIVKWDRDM
Protocol: as §2, §3

T1 sequence (heavy, as listed by the source): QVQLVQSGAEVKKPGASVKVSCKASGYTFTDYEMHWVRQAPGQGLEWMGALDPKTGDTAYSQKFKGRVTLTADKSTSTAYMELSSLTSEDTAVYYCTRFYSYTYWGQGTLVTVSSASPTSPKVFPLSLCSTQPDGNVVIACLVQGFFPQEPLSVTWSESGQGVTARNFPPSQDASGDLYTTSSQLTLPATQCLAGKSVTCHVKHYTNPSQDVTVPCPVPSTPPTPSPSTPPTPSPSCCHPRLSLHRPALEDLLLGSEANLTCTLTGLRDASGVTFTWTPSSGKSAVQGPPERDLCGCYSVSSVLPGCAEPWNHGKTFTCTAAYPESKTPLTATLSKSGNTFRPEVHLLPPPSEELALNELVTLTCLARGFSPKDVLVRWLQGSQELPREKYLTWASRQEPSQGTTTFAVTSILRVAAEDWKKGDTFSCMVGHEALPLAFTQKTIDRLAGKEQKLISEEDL
Sequence of Human IgA (hIgA), H (WT)-IgA1 / L (WT) (human) (VH, as listed by the source): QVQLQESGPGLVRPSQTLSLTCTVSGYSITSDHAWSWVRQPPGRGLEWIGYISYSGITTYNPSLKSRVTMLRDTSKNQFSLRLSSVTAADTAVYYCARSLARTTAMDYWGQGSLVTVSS

B1: GA2-IgG1 (antibody, V domains shown)
VH: QVQLVQSGAEVKKPGSSVKVSCKASGGTFSSYAISWVRQAPGQGLEWMGGIIPIFGTANYAQKFQGRVTITADESTSTAYMELSSLRSEDTAVYYCARPRWETAISSDAFDIWGQGTMVTVSS
VL: DIQMTQSPSSLSASVGDRVTITCRASQSISDDLNWYQQKPGKAPKLLIYEASNLQSGVPSRFSGSGSGTDFTLTISSLQPEDFATYYCQQHSSSPLTFGQGTKVEIKR
notes: also called GA-IgG1
Question: For B1, which “Ca-dependent binding activity (fold)” value [1] is on record?
Answer: Its value is 100 times.

Question: Does B1 bind [2]?
Answer: Result: binds

B2: clone 278 (antibody, human IgG1, kappa)
heavy: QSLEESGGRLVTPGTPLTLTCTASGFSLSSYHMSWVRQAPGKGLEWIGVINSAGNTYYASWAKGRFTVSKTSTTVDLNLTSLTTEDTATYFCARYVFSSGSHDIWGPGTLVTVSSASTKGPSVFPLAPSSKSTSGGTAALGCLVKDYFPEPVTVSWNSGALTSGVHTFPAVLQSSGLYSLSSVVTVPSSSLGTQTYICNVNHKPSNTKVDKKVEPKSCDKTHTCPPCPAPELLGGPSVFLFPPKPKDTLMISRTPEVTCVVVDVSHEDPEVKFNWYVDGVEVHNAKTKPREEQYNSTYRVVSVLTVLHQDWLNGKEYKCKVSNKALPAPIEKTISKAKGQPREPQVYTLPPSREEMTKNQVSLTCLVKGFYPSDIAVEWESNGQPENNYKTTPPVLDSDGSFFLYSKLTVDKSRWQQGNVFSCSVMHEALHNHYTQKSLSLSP
light: AYDMTQTPASVEVAVGGTVTIKCQASQSIGSWLAWYQQKPGQPPKELIYGTSTLESGVPSRFIGSGSGTEFTLTISGVECADAATYYCQQGYSEDNIDNAFGGGTEVVVKRTVAAPSVFIFPPSDEQLKSGTASVVCLLNNFYPREAKVQWKVDNALQSGNSQESVTEQDSKDSTYSLSSTLTLSKADYEKHKVYACEVTHQGLSSPVTKSFNRGEC
notes: pH-dependent anti-human IgE antibody with a human IgG1 heavy chain constant region and a human light chain constant region
Question: For B2, which “pH dependency, KD (pH 5.8, 1.2 mM Ca)/KD (pH 7.4, 1.2 mM Ca)” value [3] is on record?
Answer: The value was 842 ratio.

Question: What about the “pH/Ca dependency, KD (pH 5.8, 3 µM Ca)/KD (pH 7.4, 1.2 mM Ca)” value [3] of the same binder?
Answer: Its value is 1640 ratio.

Question: Does B2 bind [4]?
Answer: Result: binds

B3: Fv4-IgG1 (antibody)
heavy: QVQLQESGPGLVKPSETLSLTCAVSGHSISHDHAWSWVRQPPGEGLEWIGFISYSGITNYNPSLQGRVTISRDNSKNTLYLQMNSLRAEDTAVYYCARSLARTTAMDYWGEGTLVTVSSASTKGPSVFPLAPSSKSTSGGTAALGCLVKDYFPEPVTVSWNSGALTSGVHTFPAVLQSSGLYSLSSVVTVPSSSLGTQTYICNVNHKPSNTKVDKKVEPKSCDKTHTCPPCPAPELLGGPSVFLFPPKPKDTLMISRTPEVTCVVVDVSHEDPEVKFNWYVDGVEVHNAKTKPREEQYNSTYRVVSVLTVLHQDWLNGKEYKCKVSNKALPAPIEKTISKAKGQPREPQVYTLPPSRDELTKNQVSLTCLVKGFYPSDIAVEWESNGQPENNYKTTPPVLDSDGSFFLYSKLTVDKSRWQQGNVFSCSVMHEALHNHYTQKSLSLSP
light: DIQMTQSPSSLSASVGDSVTITCQASTDISSHLNWYQQKPGKAPELLIYYGSHLLSGVPSRFSGSGSGTDFTFTISSLEAEDAATYYCGQGNRLPYTFGQGTKVEIERTVAAPSVFIFPPSDEQLKSGTASVVCLLNNFYPREAKVQWKVDNALQSGNSQESVTEQDSKDSTYSLSSTLTLSKADYEKHKVYACEVTHQGLSSPVTKSFNRGEC
notes: pH-dependent anti-human IL-6 receptor antibody
Question: Does B3 bind [5]?
Answer: Result: binds

Question: Does B3 bind [6]?
Answer: Result: binds

B4: Fv4-F22 (antibody, human IgG1, kappa)
heavy: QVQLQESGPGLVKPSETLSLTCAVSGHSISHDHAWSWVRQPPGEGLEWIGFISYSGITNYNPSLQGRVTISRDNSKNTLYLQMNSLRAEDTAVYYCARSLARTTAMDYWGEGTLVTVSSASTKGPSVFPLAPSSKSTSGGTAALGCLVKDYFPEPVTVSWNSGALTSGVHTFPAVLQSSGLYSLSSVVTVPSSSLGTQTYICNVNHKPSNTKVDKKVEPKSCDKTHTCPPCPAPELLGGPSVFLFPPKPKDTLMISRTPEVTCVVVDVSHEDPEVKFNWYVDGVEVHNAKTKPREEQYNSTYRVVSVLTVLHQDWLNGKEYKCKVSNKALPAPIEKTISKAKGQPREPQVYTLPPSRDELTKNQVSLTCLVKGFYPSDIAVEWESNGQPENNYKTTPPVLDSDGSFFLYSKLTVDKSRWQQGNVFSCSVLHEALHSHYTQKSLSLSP
light: B3 light
Question: Does B4 bind [7]?
Answer: Result: binds

Question: Does B4 bind [8]?
Answer: Result: binds

Source: US20190218309A1 (Chugai, published 2019)
